Measured values taken from patent publication US20050187156A1 (Stanford University, published 2005).

Target: T1, GST-εRACK (human εRACK expressed as a GST fusion protein) (human, UniProt P35606 1-906)
T1 construct: 10 ng was immobilized on Glutathione-Sepharose 4B beads; also called immobilized GST-εRACK; not shown: glutathione S-transferase (GST) tag of baculovirus vector PacG3X (BD Biosciences)
T1 sequence (looked up): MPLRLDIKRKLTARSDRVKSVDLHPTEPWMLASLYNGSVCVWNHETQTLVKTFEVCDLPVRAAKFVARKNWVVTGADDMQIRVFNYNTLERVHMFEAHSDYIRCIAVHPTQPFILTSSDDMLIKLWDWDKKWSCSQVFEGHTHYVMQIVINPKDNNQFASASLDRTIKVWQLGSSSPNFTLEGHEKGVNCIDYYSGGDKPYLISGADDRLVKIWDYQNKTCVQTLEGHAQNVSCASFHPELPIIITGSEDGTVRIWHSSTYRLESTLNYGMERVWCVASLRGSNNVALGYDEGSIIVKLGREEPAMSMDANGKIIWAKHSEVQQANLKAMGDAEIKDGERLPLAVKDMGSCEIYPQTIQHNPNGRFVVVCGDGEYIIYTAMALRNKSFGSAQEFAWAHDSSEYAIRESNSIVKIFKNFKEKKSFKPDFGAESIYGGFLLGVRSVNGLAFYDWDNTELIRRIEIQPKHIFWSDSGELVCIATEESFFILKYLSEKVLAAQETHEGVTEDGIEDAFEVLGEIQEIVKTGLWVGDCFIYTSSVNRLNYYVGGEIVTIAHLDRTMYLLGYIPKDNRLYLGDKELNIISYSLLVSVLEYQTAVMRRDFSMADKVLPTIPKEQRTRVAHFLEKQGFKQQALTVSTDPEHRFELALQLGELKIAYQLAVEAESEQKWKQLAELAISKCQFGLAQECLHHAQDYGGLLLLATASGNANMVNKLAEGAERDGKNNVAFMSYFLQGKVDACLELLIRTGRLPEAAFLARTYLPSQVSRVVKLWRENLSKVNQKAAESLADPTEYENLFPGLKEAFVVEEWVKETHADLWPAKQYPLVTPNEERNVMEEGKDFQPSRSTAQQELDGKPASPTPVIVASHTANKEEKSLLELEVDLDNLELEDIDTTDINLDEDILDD
Test: pull-down of insect cell-expressed εPKC on GST-εRACK immobilized on glutathione-Sepharose beads, no phospholipid activators, Western blot with anti-εPKC V5
Protocol: RACKs bind active PKC [Mochly-Rosen, D. & Gordon, A. S., FASEB J. 12:35-42 (1998); Mochly-Rosen, D. et al., Molec. Biol. Cell. (formerly Cell Regulation) 1:693-706 (1990).
Insect cells expressing either εPKC or GST-εRACK were lysed as described in Example 4. GST-εRACK, 10 ng was immobilized on Glutathion-Sepharose 4B beads (Amersham-Pharmacia), and washed thoroughly with wash buffer (20 mM Tris-HCl pH 7.5, 2 mM EDTA, 100 mM NaCl, 12 mM pME, and 0.1% TritonX-100). Immobilized GST-εRACK was then incubated with the soluble fraction of insect cell lysates containing 100 ng Wt, D(86)A, or D(86)N εPKC protein, in the presence or absence of phospholipid activators (PL) (phosphatidylserine 12 μg/reaction and, Sn-1,2 dioleoylglycerol 400 ng/reaction) for 1 hour at 4° C. Upon thorough washing with wash buffer, bound proteins were eluted in SDS-PAGE sample buffer and proteins separated on 8% SDS-PAGE gels. The amount of εPKC interacting with εRACK was determined by Western blot probing for εPKC with anti εPKC-V5 antibodies. Blots were then re-probed with ant-GST (Santa Cruz) to verify that the same amount of GST-εRACK was present in each binding assay. All other methods for this Example were performed as described, for example, in Example 4.

- fold binding relative to D(86)N or Wt εPKC (absence of PL activators): ≥ 2 fold
B1: D(86)A εPKC mutant (enzyme, human, UniProt Q02156 1-737, looked up)
chain: MVVFNGLLKIKICEAVSLKPTAWSLRHAVGPRPATFLLDPYIALNVDDSRIGQTATKQKTNSPAWHDEFVTDVCNGRKIELAVFHAAPIGYDDFVANCTIQFEELLQNGSRHFEDWIDLEPEGRVYVIIDLSGSSGEAPKDNEERVFRERMRPRKRQGAVRRRVHQVNGHKFMATYLRQPTYCSHCRDFIWGVIGKQGYQCQVCTCVVHKRCHELIITKCAGLKKQETPDQVGSQRFSVNMPHKFGIHNYKVPTFCDHCGSLLWGLLRQGLQCKVCKMNVHRRCETNVAPNCGVDARGIAKVLADLGVTPDKITNSGQRRKKLIAGAESPQPASGGSPSEEDRSKSAPTSPCDQEIKELENNIRKALSFDNRGEEHRAASSPDGQLMSPGENGEVRQGQAKRLGLDEFNFIKVLGKGSFGKVMLAELKGKDEVYAVKVLKKDVILQDDDVDCTMTEKRILALARKHPYLTQLYCCFQTKDRLFFVMEYVNGGDLMFQIQRSRKFDEPRSRFYAAEVTSALMFLHQHGVIYRDLKLDNILLDAEGHCKLADFGMCKEGILNGVTTTTFCGTPDYIAPEILQELEYGPSVDWWALGVLMYEMMAGQPPFEADNEDDLFESILHDDVLYPVWLSKEAVSILKAFMTKNPHKRLGCVASQNGEDAIKQHPFFKEIDWVLLEQKKIKPPFKPRIKTKRDVNNFDQDFTREEPVLTLVDEAIVKQINQEEFKGFSYFGEDLMP
notes: Used as the soluble fraction of a Hi5 insect cell lysate containing 100 ng εPKC protein; also called D(86)A ΨεRACK mutant; A mutant
